# From article PMC7407982, “Troponin Aptamer on an Atomically Flat Au Nanoplate Platform for Detection of Cardiac Troponin I”
# Legend:
# troponin complex = troponin complex (UniProt P19429+P63316+P45379); details: 3'-(CH2)6-SH thiol; SERS sandwich: 300 mM NaCl, 20 mM Tris-HCl, 0.5 mM beta-mercaptoethanol, 20% (w/v) glycerol, 0.05% Tween 20, pH 8.0 (or with 20% human serum), 35 °C, 6 h, then …; cited from earlier work
# [1] = biological target: cardiac troponin I (cTnI) (UniProt P19429 2-210); test: SERS sandwich on Au nanoplate; AFM; sandwich with reporter N2; detected from 100 aM in buffer, 100 fM in 20% human serum; AFM capture at 10 pM; SERS sandwich: 300 mM NaCl, 20 mM Tris-HCl, 0.5 mM beta-mercaptoethanol, 20% (w/v) glycerol, 0.05% Tween 20, pH 8.0 (or with 20% human serum), 35 °C, 6 h, then
Molecule,Kd (troponin complex),binding result [1]
CGTGCAGTACGCCAACCTTTCTCATGCGCTGCCCCTCTTA [Reporter aptamer],3.1 nM,–
CGCATGCCAAACGTTGCCTCATAGTTCCCTCCCCGTGTCC [Probe aptamer],3.37 nM,–
"CGCATGCCAAACGTTGCCTCATAGTTCCCTCCCCGTGTCC (ssDNA, 3'-(CH2)6-SH thiol) [Probe aptamer]",–,binds
